The source of these data is US20250197501A1 (DEVELOPMENT CENTER FOR BIOTECHNOLOGY, published 2025).

The target of assay [1] is T1, recombinant rat B7-H3-mFc protein (rat, UniProt Q7TPB4 29-244).
T1 construct: also called rat B7-H3 mFc chimeric protein; rat B7-H3 Fc chimeric protein; not shown: mouse Fc domain
T1 sequence: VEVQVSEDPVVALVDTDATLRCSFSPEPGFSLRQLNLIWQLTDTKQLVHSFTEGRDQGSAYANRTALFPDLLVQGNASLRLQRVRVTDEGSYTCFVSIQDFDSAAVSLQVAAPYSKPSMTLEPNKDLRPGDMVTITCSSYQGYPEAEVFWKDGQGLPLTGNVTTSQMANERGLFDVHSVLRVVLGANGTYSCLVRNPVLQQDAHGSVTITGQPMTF
The experiment in a line: ELISA, plate coated with rat B7-H3 mFc. On the procedure: (§1) The binding affinity of full-length antibodies to human, monkey, mouse and rat B7-H3 were evaluated by ELISA. In brief, 96-well plate was coated with B7-H3 proteins (i.e., human B7-H3-mFc protein, cynomolgus monkey B7-H3 protein or rat B7-H3 Fc chimeric protein) in coating buffer and incubated overnight at 4° C. After washing with PBS for 3 times, the 96-well plate was inverted and tapped on clean absorbent papers to remove excess liquid. The blocking buffer (PBS containing 1% bovine serum albumin (BSA) was added to the wells, followed by incubating the plate at 37° C. for 1 hour with gentle continual shaking. After washing with PBS for 3 times, serial dilutions of anti-B7-H3 antibody (in PBS containing 1% BSA) were added into the wells. The plate was incubated at 37° C. for 1 hour with gentle continual shaking. After washing with PBS for 3 times, the secondary antibody (peroxidase-conjugated AffiniPure™ F(ab′)₂ fragment goat anti-human IgG (H+L)) was added into the wells and then incubated at 37° C. for 1 hour with gentle continual shaking. The plate was washed with PBS for 3 times, and the TMB substrate was added into each well and incubated at room temperature for 5 minutes, avoiding from light. 1 N HCl stop solution was added into each well and the absorbance was measured at 450/650 nm. The binding affinity value (EC50) of antibodies was determined by software.
A general note: ELISA stands for enzyme-linked immunosorbent assay.

Assay [2] concerns the target T2, recombinant human B7-H3-mFc protein (human, UniProt Q5ZPR3 29-466).
T2 construct: also called B7-H3 protein; not shown: mouse Fc domain
T2 sequence: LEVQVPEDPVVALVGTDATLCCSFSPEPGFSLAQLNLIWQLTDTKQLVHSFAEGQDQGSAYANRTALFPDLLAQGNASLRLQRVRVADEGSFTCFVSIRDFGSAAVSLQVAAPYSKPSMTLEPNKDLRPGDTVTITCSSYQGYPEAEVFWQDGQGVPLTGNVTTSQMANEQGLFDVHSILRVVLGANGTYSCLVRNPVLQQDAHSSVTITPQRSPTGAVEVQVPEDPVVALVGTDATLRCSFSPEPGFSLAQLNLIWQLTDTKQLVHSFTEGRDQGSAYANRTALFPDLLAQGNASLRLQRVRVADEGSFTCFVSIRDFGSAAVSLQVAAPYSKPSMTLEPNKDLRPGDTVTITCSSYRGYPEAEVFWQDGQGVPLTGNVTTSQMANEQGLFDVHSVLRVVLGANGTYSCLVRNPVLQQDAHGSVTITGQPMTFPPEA
The experiment in a line: ELISA, plate coated with human B7-H3-mFc. Here is the method:
as §1

The target in assay [3] is T3, recombinant mouse B7-H3-mFc protein (mouse, UniProt Q8VE98 29-244).
T3 construct: not shown: mouse Fc domain
T3 sequence: T1 sequence with R33A, A62S, D131N, L156V, M214L
In words: ELISA, plate coated with mouse B7-H3 mFc. Here is the method:
as §1

For assay [4], the target named is T2, recombinant human B7-H3-mFc protein. In words: SPR (Biacore), antibody captured on anti-human IgG chip, B7-H3 protein injected. (In SPR one partner is held on a chip, and binding of the other changes the refractive index at the surface.)
Assay [5] concerns the target T1, recombinant rat B7-H3-mFc protein. The description is as above.
Assay [6] deals with T3, recombinant mouse B7-H3-mFc protein. The assay is described as above.
The target of another assay is B7-H1. In words: ELISA on the named B7 family protein (Example 1.1), A450 readout; antibody concentration not given.
The target in a further assay is T4, B7-H2.
T4 chain: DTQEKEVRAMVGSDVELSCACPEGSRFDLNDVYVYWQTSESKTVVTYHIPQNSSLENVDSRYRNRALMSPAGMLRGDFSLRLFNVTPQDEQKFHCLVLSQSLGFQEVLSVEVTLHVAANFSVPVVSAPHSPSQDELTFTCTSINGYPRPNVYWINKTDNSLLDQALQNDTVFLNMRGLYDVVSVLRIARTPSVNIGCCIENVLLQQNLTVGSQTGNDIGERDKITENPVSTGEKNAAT
Described as above.

The target of another assay is T5, B7-H4.
T5 construct: Member of the group m9
T5 chain: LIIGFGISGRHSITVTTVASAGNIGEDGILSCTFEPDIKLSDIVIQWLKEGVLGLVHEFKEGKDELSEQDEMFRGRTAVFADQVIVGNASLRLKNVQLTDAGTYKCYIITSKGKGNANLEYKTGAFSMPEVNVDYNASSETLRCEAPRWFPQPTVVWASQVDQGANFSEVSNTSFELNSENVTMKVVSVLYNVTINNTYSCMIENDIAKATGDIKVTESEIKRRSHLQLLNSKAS
The description is as above.

The target of a further assay is T6, B7-H6.
T6 chain: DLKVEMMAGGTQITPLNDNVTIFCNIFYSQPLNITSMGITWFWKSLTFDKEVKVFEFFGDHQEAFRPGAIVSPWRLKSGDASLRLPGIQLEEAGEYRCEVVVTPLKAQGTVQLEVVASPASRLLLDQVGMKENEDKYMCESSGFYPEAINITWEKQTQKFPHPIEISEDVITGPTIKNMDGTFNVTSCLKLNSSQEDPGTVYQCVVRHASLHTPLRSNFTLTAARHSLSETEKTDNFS
Described as above.

For a further assay, the target named is T7, B7-H7.
T7 chain: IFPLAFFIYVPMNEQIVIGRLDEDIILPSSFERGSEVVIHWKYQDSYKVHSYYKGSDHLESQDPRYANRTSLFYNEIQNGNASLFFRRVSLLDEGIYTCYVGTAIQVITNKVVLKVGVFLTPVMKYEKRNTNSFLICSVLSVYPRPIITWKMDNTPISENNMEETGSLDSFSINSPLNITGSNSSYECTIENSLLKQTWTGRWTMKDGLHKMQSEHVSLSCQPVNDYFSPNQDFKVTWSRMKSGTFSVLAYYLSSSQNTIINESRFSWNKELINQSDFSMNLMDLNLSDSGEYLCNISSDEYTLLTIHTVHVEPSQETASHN
The assay is described as above.

Where a chain is given by its changes, count along the chain named.

B1: mAb 91H06 (antibody, V domains shown)
VH: EVQLVESGGGLVQPGGSLRLSCAASGFTFSDYGMGWVRQAPGKGLEWVSSISWDSSSKEYADSVKGRFTISRDNSKNTLYLQMNSLRAEDTAVYYCARAWIAIIGGGAHFDYWGQGTLVTVSS
VL: DIQMTQSPSSLSASVGDRVTITCRASQSVSSHLAWYQQKPGKAPKLLIYLTSSLQSGVPSRFSGSGSGTDFTLTISSLQPEDFATYYCMQSKSLPFTFGQGTKVEIKR
notes: Fully human, detected with anti-human IgG; also called antibody 91H06; anti-B7-H3 monoclonal antibody 91H06
The EC50 is the concentration needed to bring the measured effect to its halfway point. One may read the Kd as a measure of binding affinity in units of concentration. One may read the kon as a measure of how fast the partners come together. As to B1, the EC50 is 0.0601 nM in [1], 0.0186 nM in [2] and 0.0767 nM in [3]. Also, the Kd in [4] was 0.227 nM; in [6], 2.03 nM. Besides, the kon in assay [5] stood at 178000 M⁻¹ s⁻¹. For the same molecule, the binding result with B7-H1, in the assay with B7-H2, in the assay with B7-H4, with B7-H6 and with B7-H7 was “no binding” throughout.
